Data reported in paper PMC8778164, “Towards Complete Tumor Resection: Novel Dual-Modality Probes for Improved Image-Guided Surgery of GRPR-Expressing Prostate Cancer” (Pharmaceutics, 2022).
Read-outs that look alike come from different tables or passages of the source.

Columns and labels:
[1] = Ex vivo biodistribution after SPECT/CT scanning; type: in vivo, mouse; conditions: mouse, iv, PC-3 xenograft mice, i.v., ~3 h p.i.
Method: (§1) Seven-week-old male Balb/c nu/nu-specific and opportunistic pathogen-free (SOPF) mice (Janvier Labs, Le Genest-Saint-Isle, France) were housed in individually ventilated cages, with 4 mice per cage. Upon arrival, mice were acclimated for 1 week, with access to food and water ad libitum. Mice were subcutaneously inoculated on the right shoulder with PC-3 cells (5 × 10^6 cells suspended in 100 µL of 1/3 Matrigel (Corning Inc., Corning, NY, USA) and 2/3 Hank’s balanced salt solution (Gibco). PC-3 xenografts were allowed to grow for 3 weeks. Tumor sizes were 391 ± 173 mm^3 at the start of the studies. All animal experiments were approved by the Animal Welfare Committee of the Erasmus MC and were conducted in agreement with institutional guidelines (license number: AVD101002017867, 28 September 2017).
To determine the biodistribution of the compounds after imaging (~3 h p.i.), blood was collected via cardiac puncture under isoflurane/O2 anesthesia, after which the mice were sacrificed. The tumor and organs of interest (prostate, pancreas, spleen, liver, GI tract (stomach, small intestine, cecum, large intestine), kidneys, lungs, heart, muscle, bone, and brain) were excised, washed in PBS and blotted dry. The stomach, intestines and cecum were emptied of their contents. The tumor was cut in half; one half was fresh-frozen for further analysis and the other half was collected for ex vivo optical imaging and radioactivity measurements. After imaging, the blood, tumor, and relevant organs were weighed and measured in a γ-counter. To determine the total injected radioactivity per animal, samples of the injected solutions were measured as well. The percentage of injected dose per gram (%ID/g) was determined for each tissue sample and corrected for both the injected volume and %ID present at the injection site (the tail). Because the low weight of the prostate limited accurate organ weight measurements, the average prostate weight of all animals was used.

[2] = test system: PC-3-xenograft Balb/c nu/nu mice; assay: Ex vivo optical (fluorescence, IVIS) imaging of organs; type: in vivo, mouse; conditions: ex vivo after dissection, ex/em 640/680 nm
Method: as §1
(§2) Before gamma counter measurements, the tumor half, pancreas, kidneys, lungs, small intestine, large intestine, liver, muscle, and bone were placed in two petri dishes and ex vivo optical imaging was performed with the IVIS Spectrum system (Perkin Elmer, Waltham, MA, USA) using the following settings for all measurements: FOV 12.6 cm, medium binning, f2, 0.5 s exposure with an excitation/emission filter of 640 nm/680 nm. Living Image version 4.5.2 software (Perkin Elmer) was used to perform data analysis by drawing a region of interest around the organ/tissue to quantify the radiant efficiency {(photons/second/cm^2/steradian)/(μW/cm^2)}.

[3] = as above; type: in vivo, mouse; conditions: male, Balb/c nu/nu, mouse, iv, ex vivo radiant efficiency
Method: as §1, §2

[4] = Stability in mouse serum at 37 °C (iTLC); type: in vitro ADME
Method: Stability in PBS was determined by incubating 20 µL of the labeled compounds (∼11 MBq) in PBS (80 µL) at 37 °C. Radiochemical purity was determined by iTLC at 30 min, 1 h, 2 h and 4 h. Stability in the serum was carried out by adding 70 µL of the labeled compound (∼35 MBq) to 330 µL of mouse serum (Merck, Haarlerbergweg, The Netherlands). The mixture was incubated at 37 °C. At different time points (30 min, 1 h, 2 h and 4 h), an aliquot of the mixture (50 µL) was added to 50 µL ACN. The vial was vortexed and centrifuged at 10,000 rpm for 20 min and the supernatant was analyzed by iTLC.

[5] = blocked with 150 nmol unlabeled NeoB, n = 1
[6] = non-blocked, n = 3, listed as [111In]In‐15

CC(C)CC(CC(C)C)NC(=O)[C@H](Cc1c[nH]cn1)NC(=O)CNC(=O)[C@@H](NC(=O)[C@H](C)NC(=O)[C@H](Cc1c[nH]c2ccccc12)NC(=O)[C@H](CCC(N)=O)NC(=O)[C@@H](Cc1ccccc1)NC(=O)CCOCCOCCOCCOCCNC(=O)[C@H](CCCCNC(=O)OC1CCCC2C=NN=C(c3ccc(CNC(=O)CCCCC[N+]4=C(/C=C/C=C/C=C5N(C)c6ccc(S(=O)(=O)O)cc6C5(C)C)C(C)(C)c5cc(S(=O)(=O)[O-])ccc54)cc3)C2CC1)NC(=O)CN1CCN(CC(=O)O)CCN(CC(=O)O)CCN(CC(=O)O)CC1)C(C)C (stereo partly drawn) [[^111In]In-15, metal not drawn]
tissue uptake at 3 h ([1]; spleen, non-blocked, n = 3, read-out: Spleen uptake): 5.86 ± 1.7 %ID/g | tissue uptake at 3 h ([1]; stomach, blocked with 150 nmol unlabeled NeoB, n = 1, read-out: Stomach uptake): 3.48 %ID/g | tissue uptake at 3 h ([1]; stomach, non-blocked, n = 3, read-out: Stomach uptake): 4.4 ± 1.04 %ID/g | tissue uptake at 3 h ([1]; tumor, blocked with 150 nmol unlabeled NeoB, n = 1, read-out: Tumor uptake): 4.39 %ID/g | tissue uptake at 3 h ([1]; tumor, non-blocked, n = 3, read-out: Tumor uptake): 6.9 ± 0.81 %ID/g | Fluorescent signal, bone (average radiant efficiency) [2, 5]: 0.55 × 10^8 p/sec/cm^2/sr per µW/cm | Fluorescent signal, kidneys (average radiant efficiency) [2, 5]: 6.09 × 10^8 p/sec/cm^2/sr per µW/cm | Fluorescent signal, large intestine (average radiant efficiency) [2, 5]: 0.49 × 10^8 p/sec/cm^2/sr per µW/cm | Fluorescent signal, liver (average radiant efficiency) [2, 5]: 1.75 × 10^8 p/sec/cm^2/sr per µW/cm | Fluorescent signal, lungs (average radiant efficiency) [2, 5]: 2.93 × 10^8 p/sec/cm^2/sr per µW/cm | Fluorescent signal, muscle (average radiant efficiency) [2, 5]: 0.96 × 10^8 p/sec/cm^2/sr per µW/cm | Fluorescent signal, pancreas (average radiant efficiency) [2, 5]: 1.17 × 10^8 p/sec/cm^2/sr per µW/cm | Fluorescent signal, small intestine (average radiant efficiency) [2, 5]: 0.38 × 10^8 p/sec/cm^2/sr per µW/cm | Fluorescent signal, tumor (average radiant efficiency) [2, 5]: 1.47 × 10^8 p/sec/cm^2/sr per µW/cm | Fluorescent signal, bone (average radiant efficiency) ([2]; non-blocked, n = 3): 0.74 ± 0.24 × 10^8 p/sec/cm^2/sr per µW/cm | Fluorescent signal, kidneys (average radiant efficiency) ([2]; non-blocked, n = 3): 7.80 ± 0.92 × 10^8 p/sec/cm^2/sr per µW/cm^2 | Fluorescent signal, large intestine (average radiant efficiency) ([2]; non-blocked, n = 3): 0.94 ± 0.28 × 10^8 p/sec/cm^2/sr per µW/cm | Fluorescent signal, liver (average radiant efficiency) ([2]; non-blocked, n = 3): 2.38 ± 0.21 × 10^8 p/sec/cm^2/sr per µW/cm | Fluorescent signal, lungs (average radiant efficiency) ([2]; non-blocked, n = 3): 2.25 ± 0.70 × 10^8 p/sec/cm^2/sr per µW/cm | Fluorescent signal, muscle (average radiant efficiency) ([2]; non-blocked, n = 3): 1.08 ± 0.16 × 10^8 p/sec/cm^2/sr per µW/cm | Fluorescent signal, pancreas (average radiant efficiency) ([2]; non-blocked, n = 3): 5.12 ± 1.93 × 10^8 p/sec/cm^2/sr per µW/cm^2 | Fluorescent signal, small intestine (average radiant efficiency) ([2]; non-blocked, n = 3): 0.85 ± 0.04 × 10^8 p/sec/cm^2/sr per µW/cm | Fluorescent signal, tumor (average radiant efficiency) ([2]; non-blocked, n = 3): 4.66 ± 1.35 × 10^8 p/sec/cm^2/sr per µW/cm^2 | Fluorescent signal, kidneys (average radiant efficiency) [2, 6]: 7.80 ± 0.92 × 10^8 p/sec/cm^2/sr per µW/cm | Fluorescent signal, pancreas (average radiant efficiency) [2, 6]: 5.12 ± 1.93 × 10^8 p/sec/cm^2/sr per µW/cm | Fluorescent signal, tumor (average radiant efficiency) [2, 6]: 4.66 ± 1.35 × 10^8 p/sec/cm^2/sr per µW/cm | tissue to tissue ratio ([3]; tumor and kidney, blocked with 150 nmol unlabeled NeoB, n = 1, read-out: Tumor-to-kidney ratio (fluorescence)): 0.24 | tissue to tissue ratio ([3]; tumor and kidney, non-blocked, n = 3, read-out: Tumor-to-kidney ratio (fluorescence)): 0.59 ± 0.14 | tissue to tissue ratio ([3]; tumor and liver, blocked with 150 nmol unlabeled NeoB, n = 1, read-out: Tumor-to-liver ratio (fluorescence)): 0.84 | tissue to tissue ratio ([3]; tumor and liver, non-blocked, n = 3, read-out: Tumor-to-liver ratio (fluorescence)): 1.96 ± 0.57 | tissue to tissue ratio ([3]; tumor and muscle, blocked with 150 nmol unlabeled NeoB, n = 1, read-out: Tumor-to-muscle ratio (fluorescence)): 1.54 | tissue to tissue ratio ([3]; tumor and muscle, non-blocked, n = 3, read-out: Tumor-to-muscle ratio (fluorescence)): 4.5 ± 1.87 | tissue to tissue ratio ([3]; tumor and pancreas, blocked with 150 nmol unlabeled NeoB, n = 1, read-out: Tumor-to-pancreas ratio (fluorescence)): 1.25 | tissue to tissue ratio ([3]; tumor and pancreas, non-blocked, n = 3, read-out: Tumor-to-pancreas ratio (fluorescence)): 0.95 ± 0.18 | Stability in Mouse Serum (%) 30 min ([4]; intact labeled ligand after incubation at 37 °C in mouse serum, 30 min, n = 1): 96.9% | Stability in Mouse Serum (%) 1 h ([4]; intact labeled ligand after incubation at 37 °C in mouse serum, 1 h, n = 1): 96.7% | Stability in Mouse Serum (%) 2 h ([4]; intact labeled ligand after incubation at 37 °C in mouse serum, 2 h, n = 1): 96.9% | Stability in Mouse Serum (%) 4 h ([4]; intact labeled ligand after incubation at 37 °C in mouse serum, 4 h, n = 1): 97.1% | Protein-Bound Fraction at 4 h (%) ([4]; mouse serum, 4 h): 6.5%
